The labels stand for the following.
T1: SH3 domain-containing YSC84-like 1 (SH3YL1), antigen of the antibodies (UniProt Q96HL8 1-342)
T1 chain: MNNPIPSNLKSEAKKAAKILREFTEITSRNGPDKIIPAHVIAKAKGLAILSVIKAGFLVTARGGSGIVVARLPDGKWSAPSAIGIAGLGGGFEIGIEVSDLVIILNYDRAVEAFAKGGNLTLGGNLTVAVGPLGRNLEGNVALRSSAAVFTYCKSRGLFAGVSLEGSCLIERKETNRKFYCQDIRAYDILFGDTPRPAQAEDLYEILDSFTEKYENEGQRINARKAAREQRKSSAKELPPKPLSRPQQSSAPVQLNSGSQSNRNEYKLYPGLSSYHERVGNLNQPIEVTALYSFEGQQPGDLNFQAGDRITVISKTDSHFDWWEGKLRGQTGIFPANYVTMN

B1: 3E11 antibody (antibody, V domains shown)
VH: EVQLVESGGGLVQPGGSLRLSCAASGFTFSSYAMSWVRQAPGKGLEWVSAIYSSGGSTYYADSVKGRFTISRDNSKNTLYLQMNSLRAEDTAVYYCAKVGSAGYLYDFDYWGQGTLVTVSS
VL: DIQMTQSPSSLSASVGDRVTITCRASQDIANYLNWYQQKPGKAPKLLIYATSTLQSGVPSRFSGSGSGTDFTLTISSLQPEDFATYYCQQSYSSPWTFGQGTKVEIKR
B2: 4H7 antibody (antibody, V domains shown)
VH: EVQLVESGGGLVQPGGSLRLSCAASGFTFSTYGMSWVRQAPGKGLEWVSAISSSGGSIYYADSVKGRFTISRDNSKNTLYLQMNSLRAEDTAVYYCAKVSYPGLAFDIWGQGTLVTVSS
VL: DIQMTQSPSSLSASVGDRVTITCRASQTISNYLNWYQQKPGKAPKLLIYATSSLQSGVPSRFSGSGSGTDFTLTISSLQPEDFATYYCQQSYSSPWTFGQGTKVEIKR
B3: 5D5 antibody (antibody, V domains shown)
VH: EVQLVESGGGLVQPGGSLRLSCAASGFTFSDYAMSWVRQAPGKGLEWVSSISSTGSTTYYADSVKGRFTISRDNSKNTLYLQMNSLRAEDTAVYYCAKVLYEYLYFDYWGQGTLVTVSS
VL: DIQMTQSPSSLSASVGDRVTITCRASQDIRNWLNWYQQKPGKAPKLLIYAASSLQSGVPSRFSGSGSGTDFTLTISSLQPEDFATYYCQQSYSSPWTFGQGTKVEIKR
B4: 4F10 antibody (antibody, V domains shown)
VH: EVQLVESGGGLVQPGGSLRLSCAASGFTFSDYAMSWVRQAPGKGLEWVSAIYSTGSSTYYADSVKGRFTISRDNSKNTLYLQMNSLRAEDTAVYYCAKVGWYLFDYWGQGTLVTVSS
VL: DIQMTQSPSSLSASVGDRVTITCRASQSISRYLNWYQQKPGKAPKLLIYATSRLQSGVPSRFSGSGSGTDFTLTISSLQPEDFATYYCQQSYSSPWTFGQGTKVEIKR
B5: 4G4 antibody (antibody, V domains shown)
VH: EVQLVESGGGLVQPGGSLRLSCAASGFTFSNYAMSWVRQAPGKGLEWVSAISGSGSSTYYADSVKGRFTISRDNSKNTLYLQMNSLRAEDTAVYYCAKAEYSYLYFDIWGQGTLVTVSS
VL: DIQMTQSPSSLSASVGDRVTITCRASQSISNWLNWYQQKPGKAPKLLIYAASRLQSGVPSRFSGSGSGTDFTLTISSLQPEDFATYYCQQSYSSPWTFGQGTKVEIKR
B6: 4F9 antibody (antibody, V domains shown)
VH: EVQLVESGGGLVQPGGSLRLSCAASGFTFSDYAMSWVRQAPGKGLEWVSAIKSSGSSTYYADSVKGRFTISRDNSKNTLYLQMNSLRAEDTAVYYCAKAEYEYLAFDIWGQGTLVTVSS
VL: DIQMTQSPSSLSASVGDRVTITCRASQDISSWLNWYQQKPGKAPKLLIYATSTLQSGVPSRFSGSGSGTDFTLTISSLQPEDFATYYCQQSYSSPWTFGQGTKVEIKR
B7: S4A antibody (antibody, V domains shown)
VH: EVQLLESGGGLVQPGGSLRLSCAASGFTFSSYSMNWVRQAPGKGLEWVSWISPNSGSTDYAQKFQGRFTISRDNSKNTLYLQMNSLRAEDTAVYYCARTPPGTPFDYWGQGTLVTVSS
VL: QSVLTQPPSASGTPGQRVTISCSGNNIGSKSVHWYQQLPGTAPRLLIYSTSNKHSGVPDRFSGSKSGTSASLAISGLHSEDEADYYCSSYTSSGTRVFGGGTKLTVLG

Here are results for 7 molecules from patent US20260109755A1 (published 2026).

The assay addresses T1, SH3 domain-containing YSC84-like 1 ….
As for B1, the Kd (usually the equilibrium constant for the complex coming apart) amounted to 3.56 nM.

As to B2, the Kd was determined as 3.43 nM.

The molecule B3 returned a Kd of 5.49 nM.

Consider B4, for which the Kd came out at 0.404 nM.

Consider B5, for which the affinity, expressed as Kd, was 2.96 nM.

Turning to B6, binding was characterised by a dissociation constant (Kd) of 3.63 nM.

B7 returned a dissociation constant (Kd) of 2.06 nM.
